Earlier results as cited in publication PMC7736282.

Molecular target: Lys175 (UniProt position 175, VASSLKWRCPF)
Assay: NMR

For “VP39, cap-specific mRNA (nucleoside-2'-O-)-methyltransferase / poly(A) polymerase small subunit (Vaccinia virus)”, the pKa is given as 8.5.
